The source of these data is the supplement of paper PMC9112550, “Optimization of the antimicrobial peptide Bac7 by deep mutational scanning” (BMC Biology, 2022).
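Also: peptides expressed intracellularly from a pBAD plasmid library in pooled LB shake-flask culture, induced with 0.3% L-arabinose, DNA abundance read by NGS, three biological replicates, DESeq2 with apeglm shrinkage.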

This data set has as its system Escherichia coli TOP10. In words: shrunken log2 fold change of peptide-encoding DNA abundance (4.5 h post-induction vs induction); higher = less antimicrobial activity (less host growth inhibition). Conditions: time post-induction: 4.5 h; library: site-saturation at positions 5, 18, 19, 20.
Turning to RRIRVRPPRLPRPRPRPWARPRP, the “shrunken log2 fold change” value worked out at 0.416. For RRIRHRPPRLPRPRPRPRAMPRP the value was 0.592. For RRIRRRPPRLPRPRPRPWQWPRP the value was 0.549; for RRIRYRPPRLPRPRPRPDCPPRP, -0.179. The same measure for RRIRMRPPRLPRPRPRPHRIPRP: 0.0956.

RRIRCRPPRLPRPRPRPAILPRP: the “shrunken log2 fold change” value is -0.659.

With RRIRRRPPRLPRPRPRPNLQPRP, the “shrunken log2 fold change” value was -0.07.

As for RRIRKRPPRLPRPRPRPNMNPRP, the “shrunken log2 fold change” value worked out at 0.394. The same measure for RRIRRRPPRLPRPRPRPFKGPRP: 0.0185; for RRIRNRPPRLPRPRPRPKHYPRP: -0.399. Take RRIRMRPPRLPRPRPRPQRTPRP: the “shrunken log2 fold change” value stood at 1.56.

Turning to RRIRARPPRLPRPRPRPFWDPRP, the “shrunken log2 fold change” value came out at 0.00119. For the sequence RRIRWRPPRLPRPRPRPCTYPRP, the “shrunken log2 fold change” value was -0.473. For RRIRIRPPRLPRPRPRPYLQPRP the value was -0.00195. The same measure for RRIRWRPPRLPRPRPRPFVGPRP: -0.166; for RRIRGRPPRLPRPRPRPGPPPRP: 0.97; for RRIRPRPPRLPRPRPRPMGHPRP: -0.145. In the case of RRIRDRPPRLPRPRPRPNAYPRP, the “shrunken log2 fold change” value is -0.043. Consider RRIRGRPPRLPRPRPRPANSPRP, for which the “shrunken log2 fold change” value turned out to be 0.186.

With RRIRLRPPRLPRPRPRPGEPPRP, the “shrunken log2 fold change” value is -0.0262. The same measure for RRIRARPPRLPRPRPRPKRIPRP: 0.122; for RRIRNRPPRLPRPRPRPMKAPRP: -0.158. For RRIRMRPPRLPRPRPRPVYQPRP, the “shrunken log2 fold change” value was -0.372. With RRIRRRPPRLPRPRPRPPSWPRP, the “shrunken log2 fold change” value amounted to 0.295.

RRIRVRPPRLPRPRPRPIVIPRP: the “shrunken log2 fold change” value is 0.0265.

Regarding RRIRNRPPRLPRPRPRPKTVPRP, the “shrunken log2 fold change” value amounted to 0.0807.

Turning to RRIRLRPPRLPRPRPRPILAPRP, the “shrunken log2 fold change” value was -0.0814. The same measure for RRIRERPPRLPRPRPRPSNMPRP: -0.683. For the sequence RRIRCRPPRLPRPRPRPHSSPRP, the “shrunken log2 fold change” value was -0.823. The same measure for RRIRGRPPRLPRPRPRPEFVPRP: 1.15. The same measure for RRIRERPPRLPRPRPRPSWCPRP: -0.0728.

With RRIRWRPPRLPRPRPRPGVGPRP, the “shrunken log2 fold change” value turned out to be 1.27. For RRIRLRPPRLPRPRPRPPTIPRP the value was 0.168. With RRIRLRPPRLPRPRPRPTHYPRP, the “shrunken log2 fold change” value is -0.18. The same measure for RRIRRRPPRLPRPRPRPKKIPRP: 0.106; for RRIRIRPPRLPRPRPRPQRCPRP: -0.0109.

Turning to RRIRIRPPRLPRPRPRPMGQPRP, the “shrunken log2 fold change” value was -0.077. For RRIRIRPPRLPRPRPRPNIVPRP the value was -0.665; for RRIRPRPPRLPRPRPRPWCFPRP, -0.295; for RRIRHRPPRLPRPRPRPDPKPRP, 0.0039. Turning to RRIRIRPPRLPRPRPRPLKAPRP, the “shrunken log2 fold change” value was -0.02.

RRIRHRPPRLPRPRPRPVHDPRP: the “shrunken log2 fold change” value came out at 0.079. For the sequence RRIRWRPPRLPRPRPRPGKEPRP, the “shrunken log2 fold change” value was -0.0139. For RRIRERPPRLPRPRPRPDEIPRP, the “shrunken log2 fold change” value was -0.111. The same measure for RRIRMRPPRLPRPRPRPGHKPRP: -0.231; for RRIRTRPPRLPRPRPRPGNVPRP: 0.0939. The same measure for RRIRWRPPRLPRPRPRPIIYPRP: -0.327. The same measure for RRIRNRPPRLPRPRPRPPWLPRP: 0.482.

Regarding RRIRYRPPRLPRPRPRPNMIPRP, the “shrunken log2 fold change” value was -1.34.

As to RRIRGRPPRLPRPRPRPAWEPRP, the “shrunken log2 fold change” value came out at 1.01. The same measure for RRIRPRPPRLPRPRPRPAKGPRP: 0.403. The same measure for RRIRKRPPRLPRPRPRPLAWPRP: 0.928; for RRIRERPPRLPRPRPRPYPYPRP: -0.372. Take RRIRKRPPRLPRPRPRPVKVPRP: the “shrunken log2 fold change” value stood at 0.432. In the case of RRIRGRPPRLPRPRPRPSDYPRP, the “shrunken log2 fold change” value came to 0.0378. For RRIRRRPPRLPRPRPRPHQPPRP the value was 0.557; for RRIRTRPPRLPRPRPRPRLYPRP, 0.0155; for RRIRQRPPRLPRPRPRPNVTPRP, 0.0508. For RRIRMRPPRLPRPRPRPKRAPRP the value was 2.44. The same measure for RRIRQRPPRLPRPRPRPNTKPRP: -0.199; for RRIRIRPPRLPRPRPRPKYKPRP: -0.775. Consider RRIRPRPPRLPRPRPRPEKAPRP, for which the “shrunken log2 fold change” value is 0.385. For RRIRLRPPRLPRPRPRPIADPRP the value was -0.0951.

In the case of RRIRIRPPRLPRPRPRPYSFPRP, the “shrunken log2 fold change” value was -0.307.

In the case of RRIRCRPPRLPRPRPRPINSPRP, the “shrunken log2 fold change” value is -0.389. The same measure for RRIRLRPPRLPRPRPRPKLMPRP: -0.162; for RRIRSRPPRLPRPRPRPVKTPRP: -0.0806; for RRIRTRPPRLPRPRPRPATGPRP: -0.123. The same measure for RRIRCRPPRLPRPRPRPCWFPRP: -0.386; for RRIRARPPRLPRPRPRPFRMPRP: -0.184; for RRIRARPPRLPRPRPRPSDRPRP: -0.0583. As to RRIRQRPPRLPRPRPRPKPIPRP, the “shrunken log2 fold change” value was -0.112. RRIRWRPPRLPRPRPRPLAGPRP: the “shrunken log2 fold change” value was determined as 0.493. The same measure for RRIRYRPPRLPRPRPRPFDQPRP: -0.401. For RRIRHRPPRLPRPRPRPIVTPRP the value was -0.388; for RRIRWRPPRLPRPRPRPSWDPRP, 0.251; for RRIRKRPPRLPRPRPRPANSPRP, -0.0423. The same measure for RRIRMRPPRLPRPRPRPWIDPRP: -0.146. Turning to RRIRGRPPRLPRPRPRPWGYPRP, the “shrunken log2 fold change” value stood at 0.094. The same measure for RRIRSRPPRLPRPRPRPSKVPRP: -0.575; for RRIRIRPPRLPRPRPRPFHEPRP: -0.0627. The same measure for RRIRQRPPRLPRPRPRPLHAPRP: 0.164; for RRIRERPPRLPRPRPRPHYVPRP: -0.0222; for RRIRMRPPRLPRPRPRPDLTPRP: 0.869.

In the case of RRIRLRPPRLPRPRPRPRQMPRP, the “shrunken log2 fold change” value worked out at 0.208. Regarding RRIRTRPPRLPRPRPRPHETPRP, the “shrunken log2 fold change” value is -0.00261.

With RRIRLRPPRLPRPRPRPPIAPRP, the “shrunken log2 fold change” value turned out to be 0.192.

As to RRIRNRPPRLPRPRPRPDIQPRP, the “shrunken log2 fold change” value was -0.0597. The same measure for RRIRKRPPRLPRPRPRPNDNPRP: -0.076.

Take RRIRIRPPRLPRPRPRPLHQPRP: the “shrunken log2 fold change” value was -0.121. As for RRIRRRPPRLPRPRPRPDGWPRP, the “shrunken log2 fold change” value was found to be 1.45. The same measure for RRIRGRPPRLPRPRPRPTFEPRP: 0.923; for RRIRWRPPRLPRPRPRPLKDPRP: -0.178. The same measure for RRIRYRPPRLPRPRPRPEVPPRP: -0.0684.

Turning to RRIRMRPPRLPRPRPRPHDKPRP, the “shrunken log2 fold change” value is 0.0701. The same measure for RRIRTRPPRLPRPRPRPQDFPRP: -0.29.

On to RRIRCRPPRLPRPRPRPYFEPRP, for which the “shrunken log2 fold change” value was -0.572.

For the sequence RRIRIRPPRLPRPRPRPRKMPRP, the “shrunken log2 fold change” value worked out at 0.142. For RRIRIRPPRLPRPRPRPANHPRP the value was -0.528; for RRIRHRPPRLPRPRPRPKGFPRP, 0.0595.

For RRIRIRPPRLPRPRPRPRHKPRP, the “shrunken log2 fold change” value is -0.704. The same measure for RRIRKRPPRLPRPRPRPRWQPRP: 0.189; for RRIRHRPPRLPRPRPRPKMCPRP: -0.00195. On to RRIRDRPPRLPRPRPRPSCIPRP, for which the “shrunken log2 fold change” value worked out at 0.0916. For RRIRMRPPRLPRPRPRPCREPRP the value was -0.126; for RRIRGRPPRLPRPRPRPDECPRP, -0.00184; for RRIRPRPPRLPRPRPRPSQKPRP, 0.188. For RRIRYRPPRLPRPRPRPPTYPRP, the “shrunken log2 fold change” value was -0.615. RRIRRRPPRLPRPRPRPCDSPRP: the “shrunken log2 fold change” value is -0.396. For RRIRKRPPRLPRPRPRPSEDPRP the value was -0.0464; for RRIRIRPPRLPRPRPRPAACPRP, 0.156; for RRIRCRPPRLPRPRPRPQDPPRP, -0.0952. Consider RRIRRRPPRLPRPRPRPYGVPRP, for which the “shrunken log2 fold change” value amounted to 0.037. The same measure for RRIRVRPPRLPRPRPRPKHAPRP: 0.133; for RRIRSRPPRLPRPRPRPVQSPRP: -0.0536. The same measure for RRIRARPPRLPRPRPRPRSYPRP: 0.242; for RRIRNRPPRLPRPRPRPYHEPRP: -0.342; for RRIRFRPPRLPRPRPRPSADPRP: 0.157. For RRIRHRPPRLPRPRPRPVQNPRP the value was 0.171; for RRIRTRPPRLPRPRPRPKVSPRP, -0.0491; for RRIRWRPPRLPRPRPRPCDPPRP, 0.0863. Take RRIRARPPRLPRPRPRPCKFPRP: the “shrunken log2 fold change” value was -0.138. For RRIRTRPPRLPRPRPRPSTMPRP the value was -0.669; for RRIRPRPPRLPRPRPRPTHTPRP, 0.13; for RRIRWRPPRLPRPRPRPLNAPRP, 0.438.
